103 substances from the supplement of paper PMC12042874 can be followed below.

± gives the uncertainty stated by the source.

A short description of this series: amyloid nucleation score (Sup35N fusion, yeast selection) (log enrichment); library NNK2; higher = more nucleation; inactive = no reads after selection. The method in brief:
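The nucleation score is the log enrichment of output over input reads, calculated with DiMSum and centred on the mode score of non-aggregating sequences. Sequences with under 100 input reads were excluded. Reads came from Illumina sequencing of plasmid inserts from psi-negative yeast expressing Sup35N fused to peptides of 20 random codons, induced 24 hours with 100 μM copper sulfate and grown 7 days at 30°C without adenine and uracil.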
For CLNRLFHTPGDGDNYCRAIL, the amyloid nucleation score came to 0.34 ± 0.5.

With CLSASTALREGFWNPWRCGS, the amyloid nucleation score was 0.164 ± 0.8. Next, CLSCGLRTEDLYWDTRICSD: 1.18 ± 0.29. Substance CLVAQNVTVMVSGV registered an amyloid nucleation score of 5.94 ± 0.065. Next, CLVDGLANVHVYRENLGF: -0.841 ± 0.29; CLWHWSNGRNVGKIYLFAVT: -0.377 ± 0.24; CLYMRFAFHLPELRALTKSP: 0.094 ± 0.77. In the case of CMDQNVEPCSLVWQTYFPCY it was -0.419 ± 0.6; in that of CMESRCFEL, 0.438 ± 0.56; in that of CMFEFHGVAVGLMRVFHRLW, 5.23 ± 0.062.

Regarding CMFPSVCQPLTGMTVYGNST, the amyloid nucleation score was -0.084 ± 0.48. Next, CMGGQQPALGISSFTVVWLY: “inactive”; CMKMSWFRTRSTYSIEALHS: 0.037 ± 0.41.

The substance CMPPRLWMW had an amyloid nucleation score of -0.137 ± 1.1. On to CMRCILASCK, for which the amyloid nucleation score is -0.348 ± 0.34. Next, CMRVRCFSILNSAFCKCEMA: -1.62 ± 1.1.

CMSIHCVTTSRVLKFNSKWY had an amyloid nucleation score of 3.11 ± 0.15.

Substance CNCQYHSVWIT had an amyloid nucleation score of 0.392 ± 0.26.

Substance CNIVPYRPINGWIPDVLLED came in with an amyloid nucleation score of -0.275 ± 0.79. Next, CNNQEMPTSGWMSCFSCALC: 1.48 ± 0.32. Next, CNRYWGRPHGYFFSSSMCMV: -1.28 ± 0.75. Next, CNSQVVWFFRI: 4.69 ± 0.062; CNSRNMVTGISM: 0.034 ± 1.1. CNVAHRLRVRSVAK: the amyloid nucleation score was 0.789 ± 0.47. CNVDYLSDVYYHVPMQDQSL: the amyloid nucleation score came out at 0.368 ± 0.48.

Substance CNWLYF came in with an amyloid nucleation score of 0.395 ± 0.8.

CNYMPVPRPSMVMSFVSVTV: the amyloid nucleation score result is “inactive”. Next, CPEDVAEFMCRALFRSISIG: 0.45 ± 0.74. CPVAQYQG gave an amyloid nucleation score of -0.308 ± 0.21. With CRAHMCLQFNYWTRVMNTPT, the amyloid nucleation score was 6.809 ± 0.068.

CRFALSMYNWVLYNRNFQLI yielded an amyloid nucleation score of -0.363 ± 1.1.

On to CRFLRA, for which the amyloid nucleation score was -0.051 ± 0.79. Next, CRHMSDHWKSSR: -0.562 ± 0.54; CRISQTFF: 1.82 ± 0.15.

Turning to CRKYKLRHRADDCSMYCTRL, the amyloid nucleation score was 3.33 ± 0.14. For the substance CRLGLLF, the amyloid nucleation score came to 0.767 ± 0.66. Consider CRMNDNSDWVRYAGHKAMAS, for which the amyloid nucleation score was found to be 1.2 ± 0.27. For CRSHVAGFDAHTNILLKPIC, the amyloid nucleation score is -0.346 ± 0.64. For the substance CRWTASAIHARGRVSDRMRD, the amyloid nucleation score came out at 0.05 ± 0.29. For CRYYSNPAPSPRLVN, the amyloid nucleation score entry is “inactive”. Consider CSFDVYNSDCTTHDDIINNF, for which the amyloid nucleation score was -1.43 ± 1. Take CSFSADCVSRSGGRSFSP: the amyloid nucleation score is -0.834 ± 0.63. Next, CSFVLVFVIIQ: 3.49 ± 0.12; CSIGLRCGNVMLPTEWVSNC: -0.763 ± 0.32; CSPCFLSCGPYNNGPE: 7.537 ± 0.074. On to CSSENLSLLIYSIKVGNGF, for which the amyloid nucleation score was determined as 3.28 ± 0.12.

CSWLLTH registered an amyloid nucleation score of -0.461 ± 0.48. Consider CSYVDRTLGSNLWVVRSNSQ, for which the amyloid nucleation score amounted to 0.737 ± 0.51. As to CSYVNRLWVDSSVGHEEDAG, the amyloid nucleation score result was “inactive”. In the case of CTAHYYCQGCWTSRMLNLTA it was -0.116 ± 0.47.

For the substance CTAYYCDVSLNYVVRYNFPL, the amyloid nucleation score entry was “inactive”. Substance CTFKFMAVQFCG gave an amyloid nucleation score of 5.46 ± 0.073. Next, CTFSRMSVFACILANQSVFY: 7.861 ± 0.038; CTHHKCVWGIWSTFSVDSEL: -0.288 ± 1.1. CTHWLDPDFVL: the amyloid nucleation score was -0.666 ± 0.79.

As for CTIVYF, the amyloid nucleation score is 1.13 ± 0.27. In the case of CTLLFTLSYSVS it was 4.245 ± 0.037; in that of CTLVFKGLGCKSVELGGTFC, -0.564 ± 0.61; in that of CTMWVDVCLSCDHMRYDNGG, 5.96 ± 0.093. Substance CTSLLI came in with an amyloid nucleation score of -0.545 ± 0.48. Take CTSLRYFCARFELLSAHSKW: the amyloid nucleation score stood at 0.199 ± 0.4.

Consider CTSYTEDFLWCFHNVTWKVR, for which the amyloid nucleation score is 0.105 ± 0.8.

In turn, CVAVDDD came in with an amyloid nucleation score of 0.624 ± 0.46. Substance CVFAHFCCLFASMMPCKFSW had an amyloid nucleation score of -0.127 ± 1. Next, CVFKVVPLVL: 0.005 ± 1; CVFLHSALSQYRVIIVTWYP: -0.237 ± 0.63; CVFRHTVIYGLGAGW: 2.65 ± 0.14.

As to CVHIKEVLAWLDRCGLGYVW, the amyloid nucleation score is 0.662 ± 0.81.

As for CVILDWSVVCFMELVINSRS, the amyloid nucleation score was 3.21 ± 0.065. As for CVKDQSSRRRWLIYWAHSLS, the amyloid nucleation score was -0.145 ± 0.76. Turning to CVLMTALNLRKRSVGMPFCW, the amyloid nucleation score was 4.67 ± 0.077.

Take CVLSLNTGTASWITHVWKLY: the amyloid nucleation score amounted to 0.349 ± 0.5.

The substance CVNYYVYANHRRISYWW showed an amyloid nucleation score of -0.337 ± 1.1. CVVEQALLLWN: the amyloid nucleation score was -0.243 ± 0.79. In the case of CVVTSVIENGFFLQFIMFYQ it was “inactive”. For CVYRASIVRSRSNYEAVWYS, the amyloid nucleation score worked out at 0.341 ± 0.24. Next, CVYWWASGE: “inactive”; CWCSLRRFTMLCNMRMNWDN: 1.91 ± 0.086; CWVAYERSHTFRPKNQFFMH: 1.02 ± 0.53.

Substance CYFSLQNSKDMRDLELDAIN had an amyloid nucleation score of -1.46 ± 0.55.

CYGRIM showed an amyloid nucleation score of 1.74 ± 0.099. On to CYNLCCLPFCGVNLMFWLQV, for which the amyloid nucleation score stood at 7.992 ± 0.033. The substance CYRHVLFKATLKWCNFAVFI came in with an amyloid nucleation score of 7.383 ± 0.046. Next, CYRVVTLFNFK: 6.178 ± 0.029. With CYSLWRFEQMKLGMKLRGMT, the amyloid nucleation score came to 0.003 ± 0.43.

DAAEISGLCLYDFLTGDLEQ: the amyloid nucleation score amounted to 2.27 ± 0.12. In the case of DAHTMIGRYTDSSLRHRTWV, the amyloid nucleation score is 1.05 ± 0.3. Next, DALQSSFTTLLLYNAIEDVY: -0.317 ± 0.35. The substance DAWRFSTNSLHSTAYYYYFL gave an amyloid nucleation score of 5.781 ± 0.043.

As for DCARERYKLYNRLHWPSLSS, the amyloid nucleation score came to 0.474 ± 0.26. DCDVSVNSVYITVKSAICAV came in with an amyloid nucleation score of 0.767 ± 0.66.

As for DCFSYSHLRGACNVECLFYP, the amyloid nucleation score is -0.645 ± 1.1. In the case of DCISRY, the amyloid nucleation score stood at 1 ± 0.68.

For DCLIRIVQSTGVYVRWQGRA, the amyloid nucleation score was found to be 4.35 ± 0.086. DCLNRLY returned an amyloid nucleation score of 0.138 ± 0.76. Next, DCWWYRLDSMYDLTYLGIGR: -1.03 ± 0.63; DDHLCSFLRFFTNKRKRA: 4.67 ± 0.09; DDRCATSNIHLLLHPLCTYL: 0.754 ± 0.37. In turn, DDSNCNNHGRVDDKVR yielded an amyloid nucleation score of 4.9 ± 0.038. Next, DDVKDNVYGSVEALKPRSG: 0.467 ± 0.17; DDYRMVIVVT: -0.307 ± 0.33; DESICCQEVGNSRVDSDEGR: 2.94 ± 0.12. DETNGTGSRVRLVRRYER showed an amyloid nucleation score of 0.946 ± 0.27.
